The record followed here is PMC4216083.

This assay addresses Toll-like receptor 4 (human (endogenous in monocyte-derived DCs)) (UniProt O00206).
Chain of UniProt O00206 (O00206 24-839): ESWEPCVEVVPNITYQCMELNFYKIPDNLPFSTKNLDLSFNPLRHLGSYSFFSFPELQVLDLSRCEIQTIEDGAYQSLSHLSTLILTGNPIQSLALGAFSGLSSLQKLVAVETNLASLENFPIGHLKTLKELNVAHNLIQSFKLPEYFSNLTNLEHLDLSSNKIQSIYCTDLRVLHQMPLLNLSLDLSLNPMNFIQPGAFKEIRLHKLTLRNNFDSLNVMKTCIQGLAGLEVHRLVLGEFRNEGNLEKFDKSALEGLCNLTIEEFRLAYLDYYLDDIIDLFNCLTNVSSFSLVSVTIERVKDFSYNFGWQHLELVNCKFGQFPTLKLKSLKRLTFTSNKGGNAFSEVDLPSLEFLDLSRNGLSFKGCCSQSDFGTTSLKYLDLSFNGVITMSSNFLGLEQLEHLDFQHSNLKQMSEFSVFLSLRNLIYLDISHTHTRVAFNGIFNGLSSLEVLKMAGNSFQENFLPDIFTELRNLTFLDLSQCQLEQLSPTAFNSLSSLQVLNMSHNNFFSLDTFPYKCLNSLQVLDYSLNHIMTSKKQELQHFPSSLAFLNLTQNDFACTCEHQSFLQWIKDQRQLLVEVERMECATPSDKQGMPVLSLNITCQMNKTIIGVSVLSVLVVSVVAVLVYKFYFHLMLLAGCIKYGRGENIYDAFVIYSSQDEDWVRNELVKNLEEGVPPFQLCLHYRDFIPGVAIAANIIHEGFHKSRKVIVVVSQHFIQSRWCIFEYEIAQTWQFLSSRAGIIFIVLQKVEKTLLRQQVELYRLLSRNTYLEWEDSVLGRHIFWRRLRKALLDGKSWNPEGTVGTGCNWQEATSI

“Enterovirus 71 virus-like particles (complex)” came in with a decrease of EV71 VLP (10 µg/mL)-induced IL-10 production by human DCs after pre-incubation with anti-TLR4 mAb (HTA125, 20 µg/mL), ELISA of 41%; a decrease of EV71 VLP (10 µg/mL)-induced IL-12 p40 production by human DCs after pre-incubation with anti-TLR4 mAb (HTA125, 20 µg/mL), ELISA of 48%; a decrease of EV71 VLP (10 µg/mL)-induced IL-12 p70 production by human DCs after pre-incubation with anti-TLR4 mAb (HTA125, 20 µg/mL), ELISA of 68%.
